Laboratory results reported in the DeepSol protein solubility set.

Assay: soluble on expression in E. coli; label from the status in PepcDB or PDB records

For “MGSDKIHHHHHHMSLNLRDLEYFYQLSKLRSFTNVAKHFRVSQPTISYAIKRLETYYDCDLFYKDSSHQVVDLTPEGELLAMRTNEILSELNHTKKAIHRSSMKDFKVGFPPIISSYLLSKQDNLNFFNALHMIYGGSNELLSLLLNEEIDSSLLGSLEKIKHPQLEIEELFQKEFFIIMSDSHPLANEKELGFKDLLNEDFILLGEHNIHFNAFNRLNEKYNQSANVVLKLDDAHTIKELVRKNLGISLMADIRLSEDFKNLVKVPFIEEDKQFFHINYAYQKNSILSESEKNFLEILKTLK”, the “soluble on expression in E. coli” value was “not soluble”.
For “MDERPVLFFDSGIGGLTVLREVRSLIPEKQFIYVADDVGFPYGNWEENVLKNRILKIFTNLLTVYNPALCVIACNTVSTLMIADLRERFPHILFVGTVPAIKLAAEQTKSGFISVLATPGTVKRTYTHELINSFAGQCHVQLVGSEKLAGFAENYLRGQSVDLEELRNEILPCFVKKNGKHTDIIVLACTHYPFLLHFFREQALWHVQWIDPSKAIAKRTRSLLPQRIHHQTVKKYEDFALFTSQNITSSTKRLLKEFSLNITKGVDFKV”, the “soluble on expression in E. coli” value was “not soluble”.
In the case of “MGSDKIHHHHHHMKIIPVFLPYAGCKKRCVFCDQIKATGQAKVPSLDDIARIIEEYSRTSNEYELGFYGGTFTGLSEEKMEEYLRFVKRFPVVKSVRVSTRPDEINERKLKILKKYGVNVIEIGVQSFLDEVLERSKRGYTSEEAEGACKLIKKNGFVLSVHLMVGLPGSDRRGEILSALRTVECGADMVRIHPTLVFEGTELHRMMEEGEYTPLNVEEAVDVCSDLVCIFEGWGTKVIRIGYHVPVELRKYVVAGPIDPSLGDRVRRTTMKKVIESLKPSRIVVPKNYLVWFEEAKVEVGDEFRFDDLSYADALFFTGKEVVERWLNG”, the “soluble on expression in E. coli” value is reported as “not soluble”.
For “EGPIDKLKTPEDVPNDPLPLISDFEWSTLDIDDNLQLDELYKLLYDNYVEDIDATFRFKYSHEFFQWALKPPGWRKDWHVGVRVKSTGKLVAFIAATPVTFKLNKSNKVIDSVEINFLCIHKKLRNKRLAPVLIKEITRRVNKQNIWQALYTGGSILPTPLTTCRYQHRPINWSKLHDVGFSHLPPNQTKSSMVASYTLPNNPKLKGLRPMTGKDVSTVLSLLYKYQERFDIVQLFTEEEFKHWMLGHDENSDSNVVKSYVVEDENGIITDYFSYYLLPFTVLDNAQHDELGIAYLFYYASDSFEKPNYKKRLNELITDALITSKKFGVDVFNCLTCQDNTYFLKDCKFGSGDGFLNYYLFNYRTFPMDGGIDKKTKEVVEDQTSGIGVVLL”, the “soluble on expression in E. coli” value was “soluble”.
In the case of “MGHHHHHHSHMDVPYLINCLVFLFCFSKSNEHSSEYPFVRDLSLEGRLLAKNICTFNIHIHIYTHFFLRQRFTLSPRLKCSGMIIVHCSLYLLGSSNPPT”, the “soluble on expression in E. coli” value is reported as “not soluble”.
With “MGSDKIHHHHHHMRVPPHNLEAEVAVLGSILIDPSVINDVLEILSHEDFYLKKHQHIFRAMEELYDEGKPVDVVSVCDKLQSMGKLEEVGGDLEVAQLAEAVPSSAHALHYAEIVKEKSILRKLIEISRKISESAYMEEDVEILLDNAEKMIFEISEMKTTKSYDHLRGIMHRVFENLENFRERANLIEPGVLITGLPTGFKSLDKQTTGFHSSDLVIIAARPSMGKTSFALSIARNMAVNFEIPVGIFSLEMSKEQLAQRLLSMESGVDLYSIRTGYLDQEKWERLTIAASKLYKAPIVVDDESLLDPRSLRAKARRMKKEYDVKAIFVDYLQLMHLKGRKESRQQEISEISRSLKLLARELDIVVIALSQLSRAVEQREDKRPRLSDLRESGAIEQDADTVIFIYREEYYRSKKSKEESKLHEPHEAEIIIGKQRNGPVGTITLIFDPRTVTFHEVDVVHS” the “soluble on expression in E. coli” value was “not soluble”.
With “MKRGKGEKKATKSRDGSGQVVPLTEPVVTATGMVGTRSWIGGLFTRSNRRQDKAVDYTLSPLQEERLQRLQDRMVVPFDETRPDHQESLKALWNVAFPNVHLTGLVTEQWKEMGWQGPNPSTDFRGCGFIALENLLFSARTYPVNYSLLLKQRGDRAKWEYPFAVAGINISFMLIQMLDLQNNQDERAFDVLYCIAFAMMDAQWLAMHASYMEFNEVLQATRNQLERELSLDDIHRIQDLPAYNLLFQ” the “soluble on expression in E. coli” value was “soluble”.
For “AHHHHHHGSKWEEWKPFYERIVKEMGYSIEEDRRAAELLRDILMENDNYIIKEELNSIIMQKVYVFGAGPNLEEALKKGDFKDGTKIAADGATSALLEYGITPDVVVTDLDGRIRDLLEASRKAVMVVHAHGDNMDKLPLVVEFPLVLGTCQTEPLDIVYNFGGFTDGDRAAFLAEEMGAKEIVLVGFDFSGIVGKWSKPWLRDHTPAWESKMKKLKFARELLEWLKNNGRAKIIEFSI”, the “soluble on expression in E. coli” value was “not soluble”.
With “MSLIFSKIRGNFQDLKDGKISVKQGLITKSDAIELFNIKNWKDYLKLFSIASEVRDFFKNEIEITSTVHVTNICSVTPKCAYCGFAAGTSSEGYVEPFRSNDEQIKSSAAAVENSGIKRVSCSSGHGYSGKEVIRALKAVKSASNLEVLVNAGADITEDCISELKKYNIDTICCNLETTNKSVFNKVKPGENLDDRISVCKMVKKHGIELSSGLLIGIGESYEDRAEHLFFLKELDVEEIPVMGFNPYKDTPMEQCPKCSAIEQAKTIAIARLLFPNIRITSPTPTMGPELAQFALLGGASNIATVIPDNHPMNIKGVGNPKTGNLNDVICMMKELGLTPKLNEGHHHHHH” the “soluble on expression in E. coli” value was “soluble”.
For “MSFDSLGLSPDILRAVAEQGYREPTPIQQQAIPAVLEGRDLMASAQTGTGKTAGFTLPLLQHLITRQPHAKGRRPVRALILTPTRELAAQIGENVRDYSKYLNIRSLVVFGGVSINPQMMKLRGGVDVLVATPGRLLDLEHQNAVKLDQVEILVLDEADRMLDMGFIHDIRRVLTKLPAKRQNLLFSATFSDDIKALAEKLLHNPLEIEVARRNTASDQVTQHVHFVDKKRKRELLSHMIGKGNWQQVLVFTRTKHGANHLAEQLNKDGIRSAAIHGNKSQGARTRALADFKSGDIRVLVATDIAARGLDIEELPHVVNYELPNVPEDYVHRIGRTGRAAATGEALSLVCVDEHKLLRDIEKLLKKEIPRIAIPGYEPDPSIKAEPIQNGRQQRGGGGRGQGGGRGQQQPRRGEGGAKSASAKPAEKPSRRLGDAKPAGEQQRRRRPRKPAAAQ”, the “soluble on expression in E. coli” value was “soluble”.
In the case of “MSLSRYEKIISARWIITVETDGEVLENHAIAIRDGKIAAIIPAADAAGLEADERLELPDHVLMPGLINLHGHSAMSLLRGLADDKALMDWLTNYIWPTEGKHVHDDFVFDGSLLAMGEMIRGGTTTINDMYFYNAAVARAGLASGMRTFVGCSILEFPTNYASNADDYIAKGMAERSQFLGEDLLTFTLAPHAPYTVSDDTFRKVVTLAEQEDMLIHCHIHETADEVNNSVKEHGQRPLARLQRLGLLSPRLVAAHMVHLNDAEVELAARHGLSTAHNPASNMKLASGISPVSKLMDAGVAVGIGTDGAASNNKLDMLAETRLAALLAKVGTLDPTSVPAAAAIRMATLNGARALGIADKVGSVKVGKQADLIALDLAQLETAPAFDPISHVVYAAGREQVSHVWVKGRALMRERKLTTLDESDLKARAGDWRNRILAKEGHHHHHH”, the “soluble on expression in E. coli” value is reported as “soluble”.
For “MTSLCNKELSDTLVGLYDDYKRGFDIGEELKLCVDLALTLELELSIHRLSETDTVLKKEIIQTLQNRRNSHSNEDETIDETGTIIQMDFKERN”, the “soluble on expression in E. coli” value was “soluble”.
In the case of “MGHHHHHHHHHHSSGHIEGRHMIRLGYPCENLTLGATTNRTLRLAHLTEERVREKAAENLRDLERILRFNADHGFALFRIGQHLIPFASHPLFPYDWEGAYEEELARLGALARAFGQRLSMHPGQYVNPGSPDPEVVERSLAELRYSARLLSLIGAEDGVLVLHLGGAYGEKGKALRRFVENLRGEEEVLRYLALENDERLWNVEEVLKAAEALGVPVVVDTLHHALNPGRLPLEEALRLAFPTWRGRPRVHLASQDPKKRPGAHAFRVTREDWERLLSALPGPADVMVEAKGKEQGLATP”, the “soluble on expression in E. coli” value is reported as “soluble”.
With “MPSNCRRFEGKVAIVTAATKGIGLAIAERLLDEGASVVIGSRNQKNVDEAIEYLKNKGLTKVAGIAGHIASTDDQKKLVDFTLQKFGKINILVNNHGINPAFGHILEVSDQVWDKLFEVNVKAGFQMTKLVHPHIAKEGGGAIIFNASYSAYKSPPGIAAYGVTKTTLVGLTRALAMGLAKDNIRVNGIAPGVIKTKMSQVLWDGGEDAEKELTDIQEIALGRLGVPDDCAGTVAYLASDDSSYITGEMIIIAGGVQARL” the “soluble on expression in E. coli” value was “not soluble”.
In the case of “MSLTEPRQAHRLHILKVALDVPLDGVFDYLSEAPVQIGQRVVVPFGPRRQVGIVVDLADASDVAPAKLKSIIQYFDQEPVLDGEFFSLLKFCADYYQYPYGQALLSALPARLRQTEPARARQQFCYWLNSAGQAADISAIPVRQAVQRRIFAALRAHGRLNEAELAELSPGWRKGLAALRERGWIEEEQVYAGLGSTLHASSVQPELNEEQVLAVQSILQYRDTFRPWLLHGITGSGKTEVYIRLLQAVLEGNQDQALVLVPEINLTPQLEARFRTRLPQFPLVTLHSNLSESERLQNWRLAQTGAARIVIGTRLSVFTPLPGLKFMIVDEEHDTSYKQQDGMRYHARDVALVRAQRRNIPIVLGSATPALETWHNARNGRYGLLTLQQRAVSQSQLPQVNCVDVSRVQMQEGLSPQLLKALKVRLERGEQSLLFINRRGYAPVLLCNACHWIAPCMRCSSRLVVHLRQGFLRCHHCGHEQNIVRQCPSCGNADLHPTGNGTQRLEETLTRLLPEARVLRVDRDSTRRKHALSEMLSAVHVGEVDILVGTQMLAKGHDFPNLTLVGVLDTDSALFSPDFRAAERLFAQLMQVAGRAGRADKPGEVLIQTSFPEHQLFNALRVQDFAAYAASLLQEREVAQFPPCEFLALIKAEANEYGPVQRFLQFAADSARALGTDALVYDPVRPQMERLKGMERGQLLFQAATRQTLQIVLRQLTPQLRAHPLSNKIRWAVDVDPQEEGHHHHHH”, the “soluble on expression in E. coli” value is reported as “not soluble”.
For “MGFCNMLLLSNILLTAWLSTAKGEEILCTPPRVENGDGLNVKPVYKENERYHYKCKHGYVPKERGDAICTGSGWSSQPFCEEKTCSPPYILNGIYTPHRIIHRSDDEIRYECNYGFYPVTGSTVSKCTPTGWIPVPRCTLKPCEFPQFKYGRLYYEESLRPNFPVSIGNKYSYRCDNGFSPPSGYSWDYLRCTAQGWEPEVPCVRKCVFHYVENGDSAYWEKIYVQGQSLKVQCYNGYSLQNGQDIMTCTENGWSPPPKCIRIKTCSASDIHIDNGFLSESSYIYALNRETSYRCKQGYVTNTGEISGSITCLQNGWSPQPSCIKSCDMPVFENSITKNTRTWFKLNDKLDYECLVGFENEYKHTKGSITCTYYGWSDTPSCYDSTRTCGPPPPIDNGDITSLSLPEYEPLSSVDYQCQKYYLLKGNKTITCRNGKWSEPPTCLHACVIPENIMEAHNIILKWRHTEKIYAHSGEDIEFECKRGYQKARGSLPFRTKCINGTINYPTCV”, the “soluble on expression in E. coli” value was “soluble”.
With “MILKPIGVVKSPFKTQNDAPRQGRFSDAVSEIAIFDEYADGLHKIENLRHIIVLYWMDKASRDKLRVVPPGETEERGVFTTRSPSRPNPIGLCVVEILEVERNRLKVRWLDALDGSPVIDIKKYSPEIDCVNQLEGQQP” the “soluble on expression in E. coli” value was “not soluble”.
In the case of “MGSDKIHHHHHHMGKTTRKVQITGGSTFIVSLPPEWVKRNGITKGSEISISDDGNDLVISSSNPDLPEVSKKIIIPPNYTGKPLQRLLTSSYISGFDTLSIVSKEKMGSELRDDIKRFSKVVMGIEIIEETSKSVVLQNVLNVKTFPLSKAIRRMSLNVGTMIEDTIKAIEDYDEELFQNVIERDDEVDRYQWYIYREVKNHCQYEDSNVFMLVLSRILERMADHTVNICIAMKDRKAVNGRMEMIDNLKFSLDVYNHAVESFYSKNFKVLDGIINQKSEINERKFKLLKILSYDVVLSSIAEEISRIGLYGTDIAELAMDLILSDKLEFSVQ”, the “soluble on expression in E. coli” value is reported as “not soluble”.
